These results are taken from EP3436577B1.

The assay addresses cation-independent mannose-6-phosphate receptor (CIMPR). The assay can be described thus: CIMPR affinity chromatography with M6P elution gradient; spent cell culture medium before AEX product capture.

The substance “recombinant human α-galactosidase A (rhα-Gal A) (from UniProt P06280 32-429) (enzyme)” registered a percent able to bind to the CIMPR of 80%.
